According to the supplement of paper PMC9170038:

Test system: MS2 coat protein
Assay: apparent KD of MS2 coat protein; designed switch direction (-1 OFF switch, 1 ON switch): -1; higher = weaker reporter binding
In short: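 On Illumina chips, designed RNA switches with common flanks were made by stalled E. coli RNA polymerase. Titrations with SNAP-549-labelled MS2 coat protein, doubling from 0.7 or 1.5 nM to 3 µM, were done with no input, with 200 uM small-molecule ligand, or with an oligonucleotide input. Apparent KD is the median per design over clusters, from curve fits of normalised cluster fluorescence.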

[1] = input ligand: microRNA oligo, concentration not stated
[2] = Eterna round: R95, input ligand: FMN 200 uM
[3] = Eterna round: R95, input ligand: microRNA oligo, concentration not stated
[4] = Eterna round: R95, input ligand: none

| Sequence | apparent KD of MS2 coat protein (input ligand: FMN 200 uM) | apparent KD of MS2 coat protein (input ligand: none) | apparent KD of MS2 coat protein [1] | apparent KD of MS2 coat protein [2] | apparent KD of MS2 coat protein [3] | apparent KD of MS2 coat protein [4] |
| --- | --- | --- | --- | --- | --- | --- |
| UUAAUACAUGAGGAUCACCCAUGUCAGGAUAUUACGAUUACUCCGUGCCCAUUGAGAGUGAGAAGGGAUAUGGA [Eternabot (L2) Solution 58] (Eterna round: R97, puzzle: Exclusion 1) | 19.7 nM | 18.1 nM | – | – | – | – |
| UUAAUACAUGUAGGAUAUGCGUGGCGAAGCUAUGCAGAAGGACAUGAGGAUCACCCAUGUUCCAGCGUCCGCGUACGGAUGCAA [JL Eng1 1.21 mod 12] (Eterna round: R96, puzzle: Exclusion NG 1) | 14.2 nM | 14.2 nM | 12.4 nM | – | – | – |
| UUAAUUAAUGUCAGGAUAUCUAGAGCUUCGGCUCUAGAGAAGGGACAUGAGGAUCACCCAUGUCACUCUUAAUU [BmEx4/3-C1] (Eterna round: R97, puzzle: Brourd's mod of Exclusion 4) | 21.1 nM | 15.1 nM | – | – | – | – |
| UUAAUUAAUUAUAUAAGAUCACAUGAGGAUCACCCAUGUAUAUAGGAUAUCAGCUCGUUUAGAGCUGAGAAGGAUAUACAAUAU [ExNG3/3-B2] (Eterna round: R96, puzzle: Exclusion NG 3) | 41.8 nM | 209 nM | 497 nM | – | – | – |
| UUAAUUAAUUGACUGCAAGAUCAACAUGAGGAUCACCCAUGUGAGGAUAUCAGCUCGAUUAGAGCUGAGAAGGCACAAGCAGUC [ExNG3/16-A1] (Eterna round: R96, puzzle: Exclusion NG 3) | 80.4 nM | 17.5 nM | 15 nM | – | – | – |
| UUAAUUACGGUGCUUUAACCUCACAUGAGGAUCACCCAUGUGCAGGAUAUCAGCUCGUGUAGAGCUGAGAAGGGCACUGCACCG [ExNG3/11-A3] (Eterna round: R96, puzzle: Exclusion NG 3) | 14 nM | 12.1 nM | 8.05 nM | – | – | – |
| UUAAUUCUGAUUCUUGAAAUACAUGAGGAUCACCCAUGUUCACAGGAUAUUGAUUAUGUUAGUUACAAGAAGGGUGUAUCAUAU [JR_ExcNG3_Sub038] (Eterna round: R96, puzzle: Exclusion NG 3) | 38.9 nM | 30.6 nM | 26.8 nM | – | – | – |
| UUACAAUGUCACUUACAAGCUUUUUGCUCGUCUUAUAUUACAUGAGGAUCACCCAUGUAGAUCAUGUGGCGUGACCU [JL ViennaUCT Maridi mod 10] (puzzle: Sensor v3, turn-off variant 2) | – | – | – | 145 nM | 46.7 nM | 151 nM |
| UUAGCGUAAGUAAGGAUAUGCUGGUCUAAUGAUCAGCAGAAGGUACAUGAGGAUCACCCAUGUGGAUUCGUUAU [Mod of JL 10 - Jieux - Brourd's mod of Exclusion 4] (Eterna round: R97, puzzle: Brourd's mod of Exclusion 4) | 35.8 nM | 19.2 nM | – | – | – | – |
| UUAGGCGUCUUUGCUCGUCUUAUUUGGAGAUGACUGUUAACAUGAGGAUCACCCAUGUGUGUGGGAGCUUUGCAGUU [JR_SV3TOV2_Sub022] (puzzle: Sensor v3, turn-off variant 2) | – | – | – | 215 nM | 377 nM | 271 nM |
| UUAGGUAAAGGAUAUGUAUGGGCGACCCAUAUGACCGAGUGACAUGAGGAUCACCCAUGUAGAAGGUUGCUGAU [Eternabot (L1) Solution 60] (Eterna round: R97, puzzle: Exclusion 2) | 125 nM | 95.7 nM | – | – | – | – |
| UUAUAAAGUGUGAGGAUAUGCUGGUCCUUAGAUCAGCAGAAGGCACAUGAGGAUCACCCAUGUAAUAUAUUUUU [Mat - Exclusion 4 - JL Mod - D42] (puzzle: Brourd's mod of Exclusion 4) | – | – | – | – | 33.9 nM | – |
| UUAUAGAGAGGAUAUAUAAUGUGAAACAUGAGGAUCACCCAUGUAAUAUUAUGGAUGUAAAUAGAAGGCUCAAUUU [Mat - Exclusion 5 - JL mod - D14] (puzzle: Exclusion 5) | – | – | – | 29.3 nM | 30.6 nM | 32.4 nM |
| UUAUAGGCAGGAUAUACAUGAGGAUCACCCAUGUAAAUUUUUCGUUUAACUUGAAUGUGUAGAAGGGCCAUAUU [Ex3 #57] (Eterna round: R97, puzzle: Exclusion 3) | 22.3 nM | 21.6 nM | – | – | – | – |
| UUAUGAGUAGGAUAUGAGCCAAAAUACAUGAGGAUCACCCAUGUCGGGUUCAUGGAGGGCUCAGAAGGAUUCAAUA [Exclusion 5 - Laarte Mod] (Eterna round: R97, puzzle: Exclusion 5) | 105 nM | 17 nM | – | – | – | – |
| UUAUUAAAUGUAGGAUAUGCAUAUUAUUAUUAUGCAGAAGGACAUGAGGAUCACCCAUGUAUAUUAUUAUUAUUUAUUAUAUAU [Title] (Eterna round: R96, puzzle: Exclusion NG 1) | – | – | 36.1 nM | – | – | – |
| UUAUUAUAUGUAGGAUAUGCAUAUUAUUAUUAUGCAGAAGGACAUGAGGAUCACCCAUGUAUGUUAUUAUUAUAUAUUAUAUAU [Title] (Eterna round: R96, puzzle: Exclusion NG 1) | – | – | 20.7 nM | – | – | – |
| UUAUUAUAUGUAGGAUAUGCGUAUUAUUGUUAUGCAGAAGGACAUGAGGAUCACCCAUGUAUAUUAUUGUUGUAUAUUAUAUAU [Title] (Eterna round: R96, puzzle: Exclusion NG 1) | – | – | 20.7 nM | – | – | – |
| UUCACAUGGACAUAAGAUCACAUGAGGAUCACCCAUGUGAAUAACAAGCUUUUUGUUCGUCUUAUGUCCAAUAAUAA [Stov1/14-B1] (Eterna round: R97, puzzle: Sensor, turn-off variant 1) | 12.3 nM | 12.6 nM | – | – | – | – |
| UUCAUGUGAGGAUAUUAGUAGUAAAUAAAUAAAAUUAUUACUGAGAAGGUACAUGAGGAUCACCCAUGUUCCUU [Salish 062 v22] (Eterna round: R97, puzzle: Exclusion 4) | 18.5 nM | 13.9 nM | – | – | – | – |
| UUCCUACAUGAGGAUCACCCAUGUCAGGAUAUCUCCUCACCGCGAAAAGGCGGUGAAAAGAGAAGGGACAGGAA [Usbian] (puzzle: Exclusion 1) | – | – | – | 16 nM | 10.7 nM | 13.8 nM |
| UUCCUCACUUCUUUGUCUCACAUGAGGAUCACCCAUGUAAUAUAGGAUAUGCUUAGUAUUUUUAUGCAGAAGGAUAUUAGUUUU [JR_ExcNG3_Sub085] (Eterna round: R96, puzzle: Exclusion NG 3) | 169 nM | 39.8 nM | 32.8 nM | – | – | – |
